The results in this text go back to US20250206836A1 (ONA THERAPEUTICS S L, published 2025).

A word on the EC50: it is the midpoint of the concentration-response curve. Broadly, the koff is the rate constant with which the complex falls apart. The kon is the rate constant with which the complex forms.

Substitutions are numbered along the chain they refer to. In names and notes the source's numbering stands.

The target of assay [1] is T1, human CD36 (on HEK 293 or SCC25 cells) (human, UniProt P16671 2-472).
T1 construct: Overexpressed transiently or stably on HEK 293 cells, or stably on SCC25 cells; also called huCD36
The experiment in a line: FACS, HEK 293 cells transiently overexpressing CD36.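 Note: antibody binding to transfected cells detected by flow cytometry with a fluorescent anti-human secondary antibody, EC50 from a four-parameter sigmoidal fit of mean fluorescence intensity.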

Assay [2] has as its target T2, mouse CD36 (on HEK 293 cells) (mouse, UniProt Q08857 1-472).
T2 construct: also called Murine CD36
The description is as above.

In assay [3] the target is T3, nonhuman primate CD36 (on HEK 293 cells) (cynomolgus monkey / rhesus macaque, UniProt P16671 2-472 (human entry)).
T3 construct: also called non-human primate CD36 (cynomolgus)
Described as above.

The target in assay [4] is T1, human CD36 (on HEK 293 or SCC25 cells). The experiment in a line: FACS, SCC25 cells stably overexpressing human CD36. (A flow cytometer gives signals particle by particle.)
Assay [5] has the same target. The assay can be described thus: cell-based or functional assay.
The target is the same in assay [6]. The assay can be described thus: cell-based or functional assay. This is another data set of the same source.
In assay [7] the target is purified biotin-tagged human CD36 (human, UniProt P16671 30-439, limits assumed, biotin tag, site not stated). The experiment in a line: AlphaScreen competition; competitor 1G04 on acceptor beads.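 Note: streptavidin donor beads excited at 680 nm release singlet oxygen, and the light signal needs a nearby acceptor bead, with 30 min donor-bead incubation at 25 °C in the dark.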 Background: In Alpha technology, singlet oxygen from a donor bead excites a nearby acceptor bead.
Assay [8] deals with T1, human CD36 (on HEK 293 or SCC25 cells). The assay can be described thus: cell-based or functional assay. This is another data set of the same source.
The target of assay [9] is T4, human CD36 (His-tagged) (human, UniProt P16671 30-439).
T4 construct: not shown: His tag
The assay can be described thus: SPR (Biacore T200), His-captured CD36, bivalent analyte model. (Surface plasmon resonance follows binding to a sensor surface in real time, without labels.)

T3 sequence (P16671 other isoform, or with tags, fused parts or gaps limits assumed): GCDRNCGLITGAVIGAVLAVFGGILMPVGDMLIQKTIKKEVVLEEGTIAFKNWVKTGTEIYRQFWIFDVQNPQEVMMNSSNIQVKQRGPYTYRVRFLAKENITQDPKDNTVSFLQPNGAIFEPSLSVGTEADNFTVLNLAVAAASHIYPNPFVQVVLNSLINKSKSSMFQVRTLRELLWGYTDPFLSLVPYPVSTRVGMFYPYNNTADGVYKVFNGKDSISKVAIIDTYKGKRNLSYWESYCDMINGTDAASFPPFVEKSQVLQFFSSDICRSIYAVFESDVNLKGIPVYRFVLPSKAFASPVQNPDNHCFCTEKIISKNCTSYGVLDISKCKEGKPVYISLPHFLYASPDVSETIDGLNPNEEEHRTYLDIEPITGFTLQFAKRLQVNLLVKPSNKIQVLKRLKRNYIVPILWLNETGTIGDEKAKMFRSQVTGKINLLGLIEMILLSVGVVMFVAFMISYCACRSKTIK
T1 sequence (P16671 2-472 limits assumed): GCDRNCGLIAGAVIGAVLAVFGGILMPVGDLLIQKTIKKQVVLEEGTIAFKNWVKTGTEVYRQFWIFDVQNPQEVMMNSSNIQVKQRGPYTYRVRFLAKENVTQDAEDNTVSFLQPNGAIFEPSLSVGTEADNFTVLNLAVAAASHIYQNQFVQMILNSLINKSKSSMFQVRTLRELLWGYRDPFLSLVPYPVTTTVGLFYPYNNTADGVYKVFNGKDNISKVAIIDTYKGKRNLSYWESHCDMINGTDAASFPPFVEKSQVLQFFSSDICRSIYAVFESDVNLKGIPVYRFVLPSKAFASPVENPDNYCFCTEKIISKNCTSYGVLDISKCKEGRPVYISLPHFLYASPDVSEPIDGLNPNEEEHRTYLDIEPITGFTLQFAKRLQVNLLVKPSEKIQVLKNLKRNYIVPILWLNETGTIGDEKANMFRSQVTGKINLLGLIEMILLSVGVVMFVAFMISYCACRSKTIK
T4 sequence (P16671 30-439 limits assumed): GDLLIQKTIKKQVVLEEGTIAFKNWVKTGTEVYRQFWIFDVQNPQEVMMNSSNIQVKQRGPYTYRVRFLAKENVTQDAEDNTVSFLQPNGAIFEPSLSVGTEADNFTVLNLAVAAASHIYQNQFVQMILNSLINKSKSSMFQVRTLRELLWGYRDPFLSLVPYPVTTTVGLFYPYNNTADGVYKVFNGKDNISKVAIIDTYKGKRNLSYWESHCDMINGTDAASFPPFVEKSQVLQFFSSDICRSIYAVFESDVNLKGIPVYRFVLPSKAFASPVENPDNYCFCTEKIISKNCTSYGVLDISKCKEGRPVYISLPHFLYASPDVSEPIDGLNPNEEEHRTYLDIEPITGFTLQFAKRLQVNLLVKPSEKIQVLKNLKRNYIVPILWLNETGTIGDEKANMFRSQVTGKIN
Chain of purified biotin-tagged human CD36 (P16671 30-439 limits assumed): as above
T2 sequence (Q08857 whole entry): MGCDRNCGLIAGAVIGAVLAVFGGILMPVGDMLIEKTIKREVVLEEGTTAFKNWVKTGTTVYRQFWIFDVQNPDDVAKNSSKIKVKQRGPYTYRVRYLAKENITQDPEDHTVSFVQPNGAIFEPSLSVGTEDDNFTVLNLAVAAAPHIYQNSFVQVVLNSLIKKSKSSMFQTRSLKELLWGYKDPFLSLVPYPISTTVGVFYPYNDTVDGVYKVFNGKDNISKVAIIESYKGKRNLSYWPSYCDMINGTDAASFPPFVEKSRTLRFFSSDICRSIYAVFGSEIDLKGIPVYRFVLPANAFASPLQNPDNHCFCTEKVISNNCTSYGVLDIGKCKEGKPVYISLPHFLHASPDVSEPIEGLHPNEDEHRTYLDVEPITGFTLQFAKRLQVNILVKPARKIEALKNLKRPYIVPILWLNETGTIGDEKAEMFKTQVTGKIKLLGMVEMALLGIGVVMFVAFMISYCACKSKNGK

B1: 10G04 (antibody, human IgG1, V domains shown)
VH: DVQLQESGPELVKPGASVKISCKASGYTFTDYNMHWVKQSHGKSLEWIGYIYPYNGGTGYNQKFKSKATLTVDNSSSTAYMELRSLTSEDSAVYYCARDGGYDVYFDYWGQGTTLTVSS
VL: DVVMTQTPLSLPVSLGDQASISCRSSQSLVHSNGNTYLHWYLQKPGQSPKLLIYKVSNRFSGVPDRFSGSGSGTDFTLKISRVEAEDLGVYYCFQGSHVPWTFGGGTKLEIK
notes: Chimeric: mouse variable regions on human IgG1 LALA (L234A/L235A); also called 010G04
As for B1, the EC50 amounted to 0.77 nM in [1], 16 nM in assay [2], 1.48 nM in assay [3] and 3.3 nM in assay [4]. Also, the “IC50 of fatty acid uptake inhibition (BODIPY FL C16, HEK hCD36 cells)” value (from here on “IC50 of fatty acid uptake inhibition”) in assay [5] was 33 nM.

B2: 14G04 (antibody, human IgG1, V domains shown)
VH: QVQLQQSGAELVRSGASVRLSCTASGFNIKDYYIHWVKQRPEQGLEWIGWIDPENGDTEYAPRFQDKATMTADTSSNTAYLQLSSLTSEDTAVYYCNGWLLSGNGMDYWGQGTSVTVSS
VL: DIVMTQSHKFMSTSVGDRVSITCKASQDVGTAVAWYQQKPGQSPKLLIYWASTRHTGVPDRFTGSGSGTDFTLTISNVQSEDLADYFCQQYSSYPTFGGGTKLEIK
notes: Chimeric: mouse variable regions on human IgG1 LALA (L234A/L235A); also called 014G04
Consider B2, for which the “IC50 of oxLDL uptake inhibition (DiI-oxLDL, SCC25 cells)” value in assay [6] was 0.35 nM. Moreover, the EC50 in assay [1] came to 1.47 nM; in assay [2], 1.57 nM; in assay [3], 0.88 nM; in assay [7] it was 0.31 nM; in [4] it was 0.41 nM. The “Percent Fatty Acid Uptake Inhibition” value in assay [8] is 45.1%. Also, in assay [5], the “IC50 of fatty acid uptake inhibition” value is 0.13 nM. For the same molecule, in assay [9], the Kd was determined as 2.3 nM. In [9], this molecule displayed a koff of 0.0072 s⁻¹. The kon in [9] is 3.1e+06 M⁻¹ s⁻¹.

B3: 32G04 (antibody, human IgG1, V domains shown)
VH: EEKLEESGGGLVQPGGSMKLSCVASGFTFSNYWMNWVRQSPEKGLEWVAEIRLKSNNYATHYAESVKGRFTISRDDSKSSVYLQMNNLRAEDTGIYYCTPLLLRWGQGTTLTVSS
VL: ENVLTQSPAIMSASPGEKVTMTCRASSSLSSTYLHWYQQKSGASPKLWIYSTSNLASGVPARFSGSGSGTSYSLTISSVEAEDAATYYCQQYSGYPLTFGSGTKLEIK
notes: Chimeric: mouse variable regions on human IgG1 LALA (L234A/L235A); also called 032G04
Consider B3, for which the concentration for a half-maximal effect (EC50) in [1] turned out to be 0.94 nM; in [2] it was 5.14 nM; in assay [3] it was 6.52 nM; in assay [7], 1.46 nM; in [4] it was 1.88 nM. Besides, the “IC50 of fatty acid uptake inhibition” value in assay [5] is 42 nM.

B4: 18G04 (antibody, human IgG1, V domains shown)
VH: EVQLQQSGPELVKPGASVKISCETSGHTFTEYTMHWVKQSHGKSLEWIGGIYPNNGATKYNQKFKGKATLTVDKSSSTAYMELRSLTSEDSAVYYCARDRYDVWFAYWGQGTLVTVSA
VL: ETTVTQSPASLSMAIGEKVTIRCITSTDIDDDMNWYQQKPGEPPKLLISEGNTLRPGVPSRFSSSGYGTDFVFTIENLLSEDVADYYCLQSDNLPLTFGGGTKLEIK
notes: Chimeric: mouse variable regions on human IgG1 LALA (L234A/L235A); also called 018G04
For B4, the figures for the EC50 in assay [2], in assay [3] and in assay [7] were 14.7 nM, 6.6 nM and 15.6 nM, respectively. Further, the “IC50 of fatty acid uptake inhibition” value in assay [5] was 2.6 nM.

B5: 12G04 (antibody, human IgG1, V domains shown)
VH: EVQLVESGGGLVQPGESLKLSCESNEYEFPSHDMSWVRKTPEKRLELVAAINSDGGYTYYPDTMERRFIISRDNTKKTLYLQMSSLRSEDTALYYCARHGYDYDEEGAWFAYWGQGTLVTVSA
VL: B4 VL with S65T, T74S, L78M, L96F, G100S
notes: Chimeric: mouse variable regions on human IgG1 LALA (L234A/L235A); also called 012G04
For the molecule B5, the EC50 in assay [1] was found to be 0.31 nM; in assay [2], 1.2 nM; in assay [3], 0.67 nM; in assay [7], 0.78 nM; in assay [4], 0.39 nM. The “Percent Fatty Acid Uptake Inhibition” value in assay [8] was 43.8%. The “IC50 of fatty acid uptake inhibition” value in assay [5] was found to be 3.9 nM.

B6: 5G04 (antibody, human IgG1, V domains shown)
VH: QVQLQQSGAELVMPGASVKMSCKASGYTFTDYWMHWVKQRPGQGLEWIGAIDTSDSYTSYNQKFKGKATLTVDESSSTAYMQLSSLTSEDSAVYYCARDYYGSSTAWFAYWGQGTLVTVSA
VL: B4 VL with E76D, L78M, L96F, G100S
notes: Chimeric: mouse variable regions on human IgG1 LALA (L234A/L235A); also called 05G04; 005G04
Turning to B6, the EC50 was found to be 5.03 nM in assay [2], 2.43 nM in assay [3] and 0.02 nM in assay [7]. For the same molecule, the “IC50 of fatty acid uptake inhibition” value in assay [5] is over 1000 nM.

B7: 9G04 (antibody, human IgG1, V domains shown)
VH: QVQLQQSGAELVRPGASVTLSCKASGYTFTDYEMHWVKQTPVHGLEWIGTVDPETGGTAFNQKFKDKASLTADKSSSTVYMELRSLTSEDSAVYYCSRGYGNYGAWFAYWGQGTLVTVSA
VL: B4 VL with M13V, I15T, L78M, L96F, G100S
notes: Chimeric: mouse variable regions on human IgG1 LALA (L234A/L235A); also called 09G04; 009G04
For B7, the EC50 in assay [1] amounted to 0.5 nM; in assay [2], 12 nM; in assay [3], 13.9 nM; in assay [7], 2.06 nM; in assay [4], 0.41 nM. In assay [8], the “Percent Fatty Acid Uptake Inhibition” value came to 41.1%. Moreover, the “IC50 of fatty acid uptake inhibition” value in assay [5] amounted to 170 nM.

B8: 17G04 (antibody, human IgG1, V domains shown)
VH: EVQLQQSGPELVKPGASVKISCKTSGYTFTEYTMHWVKQSHGKSLEWIGGIYPYNGGTAYNQKFKNKATLTVDISSNTAYMALRSLASDDSAVYYCASDYFYGDGYPWFTYWGQGTLVTVSA
VL: B4 VL with M13V, I15T, K39R, K45N, L78T, L96F, G100S, K103R
notes: Chimeric: mouse variable regions on human IgG1 LALA (L234A/L235A)
On to B8, for which the EC50 in assay [1] was determined as 1.25 nM; in [2], 9.31 nM; in assay [3] it was 4.03 nM; in [7], 0.52 nM.

B9: 21G04 (antibody, human IgG1, V domains shown)
VH: QVQLQQSGAELVKPGASVKLSCKASGYTFTSYWMHWVKQRPGQGLEWIGEIDPSDSHTNYNQKFKGKATLTVDKSSSTAYMQLSSLTSEDSAVYYCAPIYYGLDNWGQGTTLTVSS
VL: ETTVTQSQKFMSTSVGDRVSVTCKASQNVGTNVAWYQQKPGQSPKALIYSASYRYSGVPDRFTGSGSGTDFTLTISNVQSEDLAEYFCQQYNSYPFTFGSGTKLEIK
notes: as for B8
Consider B9, for which the EC50 in assay [1] is 0.36 nM; in [3], 6.38 nM; in [7] it was 0.45 nM.

B10: 25G04 (antibody, human IgG1, V domains shown)
VH: B9 VH with Q1E, T58A
VL: B9 VL with E1D, T2I, T3V, V4L, S80P, F96L, S100G
notes: as for B8
In the case of B10, the concentration giving a half-maximal response (EC50) in [1] was 0.74 nM; in assay [3] it was 2.19 nM; in [7], 0.29 nM.

B11: 23G04 (antibody, human IgG1, V domains shown)
VH: B9 VH with S7P, A9T
VL: B9 VL with E1D, T2I, T3V, V4L, F96Y, S100G
notes: Chimeric: mouse variable regions on human IgG1 LALA (L234A/L235A); also called 023G04
Turning to B11, the figures for the EC50 in [1], in assay [3] and in assay [7] were 0.3 nM, 1.69 nM and 0.28 nM, respectively. For the same molecule, the “IC50 of fatty acid uptake inhibition” value in assay [5] was determined as 1 nM.

B12: 22G04 (antibody, human IgG1, V domains shown)
VH: B9 VH with S7P, T58A, Y100H
VL: B9 VL with E1D, T2I, T3V, V4L, F96L, S100A, I106L
notes: as for B8
With B12, the EC50 in assay [1] was 1.25 nM; in assay [3], 1.68 nM; in assay [7], 0.53 nM.

B13: 24G04 (antibody, human IgG1, V domains shown)
VH: B9 VH with T58A
VL: DIVMTQSQKFLSTSVGDRVSVTCKASQNVGTNVAWYQQKPGQSPKVLIYSASYRYSGVPDRFTGSGSGTDFTLTVSNVQSEDLAEYFCQQYNNYPLTFGAGTKLELK
notes: as for B8
Consider B13, for which the EC50 was 0.26 nM in assay [1], 0.81 nM in [3] and 0.29 nM in [7].
